Target: α-synuclein wild-type (UniProt P37840)
Assay: seeded fibril elongation kinetics

- elongation rate constant k+ (monomer addition to AS(WT) seed fibril ends): 2780 M⁻¹ s⁻¹
Substance: α-synuclein C-terminally truncated variant AS(1-119) (from UniProt P37840 1-119) (domain or fragment)
